From US20210236614A1
Values joined by “and” are separate entries in the source; they are usually repeats but may differ in a detail not shown here. Equal entries are not always repeated.

Columns and labels:
Assay in all cases: ELISA, His-PD1 on nickel plate, conjugate only control
[1] = molecular target: His tagged canine PD1 (Sino) (canine)
[2] = molecular target: His tagged mouse PD1 (Sino) (mouse) (UniProt Q02242)
[3] = molecular target: His tagged rat PD1 (Sino) (rat) (UniProt D3ZIN8)
[4] = molecular target: His tagged rhesus monkey PD1 (Sino) (rhesus monkey) (UniProt B0LAJ2)
Sequence of His tagged rhesus monkey PD1 (Sino) (rhesus monkey) (B0LAJ2 entry or part of it limits assumed, form in doubt): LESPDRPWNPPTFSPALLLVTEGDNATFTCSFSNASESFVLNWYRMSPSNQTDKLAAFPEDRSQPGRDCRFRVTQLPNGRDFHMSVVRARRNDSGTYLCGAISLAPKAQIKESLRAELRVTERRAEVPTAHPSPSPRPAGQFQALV

Sequence of His tagged mouse PD1 (Sino) (mouse) (Q02242 25-167 limits assumed): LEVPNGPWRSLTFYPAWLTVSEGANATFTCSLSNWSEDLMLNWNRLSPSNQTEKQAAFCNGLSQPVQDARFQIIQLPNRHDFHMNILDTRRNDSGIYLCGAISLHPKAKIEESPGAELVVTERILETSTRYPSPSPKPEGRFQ
Sequence of His tagged rat PD1 (Sino) (rat) (D3ZIN8 entry or part of it limits assumed, form in doubt): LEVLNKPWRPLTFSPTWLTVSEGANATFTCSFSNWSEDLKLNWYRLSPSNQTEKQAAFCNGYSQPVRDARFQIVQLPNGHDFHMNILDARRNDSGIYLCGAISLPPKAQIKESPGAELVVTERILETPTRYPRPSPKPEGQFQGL

OD [1]: 0.059 OD and 0.06 OD
OD [2]: 0.066 OD and 0.064 OD
OD [3]: 0.055 OD
OD [4]: 0.063 OD and 0.058 OD
Substance: horseradish peroxidase-labeled anti-rabbit antibody (conjugate only control)
